{"source": "patent US20230158165", "key": {"[1]": {"tested_on": "PEG12 construct peptide (Peg12-Val-Cit-Tregitope-Nle), before addition of MPA and HSA"}, "[2]": {"tested_on": "PEG2 construct peptide (KKKK-Peg2-Val-Cit-Tregitope-Nle), before addition of MPA and HSA"}}}
{"substance": "Recombinant human Cathepsin B (catalog 953-CY of R&D Systems)", "values": [{"measurement": "cleavage of the Val-Cit site, evaluated by mass spec", "setting": "[1]", "value": "For the PEG12 product, successful cleavage is demonstrated"}, {"measurement": "cleavage of the Val-Cit site, evaluated by mass spec", "setting": "[2]", "value": "the PEG2 peptide did not have successful cleavage, and further modification of the Cathepsin B protocol did not produce successful cleavage"}]}
